The text below walks through data of article PMC6904361, “Vitamin D Receptor Inhibits NLRP3 Activation by Impeding Its BRCC3-Mediated Deubiquitination” (Frontiers in Immunology, 2019).

The target of the assay is T1, His-NLRP3 (human, UniProt Q96P20 1-1036).
T1 construct: human NLRP3 cloned into pET28a; The methods name only His-NLRP3; also called His-NLRP3-Flag; pET28a-His-NLRP3; source: E. coli (pET28a), IPTG-induced; called purified in the legend
Nature of the assay: pull-down; GST or GST-VDR with His-NLRP3, pulled down on Glutathione MagBeads, immunoblot; incubation 2 h or overnight at 4 °C on a rotator (methods). As to conditions: both partners purified. On the technique in general: Immunoblotting shows a protein as a band on a membrane.

T1 sequence (Q96P20 whole entry): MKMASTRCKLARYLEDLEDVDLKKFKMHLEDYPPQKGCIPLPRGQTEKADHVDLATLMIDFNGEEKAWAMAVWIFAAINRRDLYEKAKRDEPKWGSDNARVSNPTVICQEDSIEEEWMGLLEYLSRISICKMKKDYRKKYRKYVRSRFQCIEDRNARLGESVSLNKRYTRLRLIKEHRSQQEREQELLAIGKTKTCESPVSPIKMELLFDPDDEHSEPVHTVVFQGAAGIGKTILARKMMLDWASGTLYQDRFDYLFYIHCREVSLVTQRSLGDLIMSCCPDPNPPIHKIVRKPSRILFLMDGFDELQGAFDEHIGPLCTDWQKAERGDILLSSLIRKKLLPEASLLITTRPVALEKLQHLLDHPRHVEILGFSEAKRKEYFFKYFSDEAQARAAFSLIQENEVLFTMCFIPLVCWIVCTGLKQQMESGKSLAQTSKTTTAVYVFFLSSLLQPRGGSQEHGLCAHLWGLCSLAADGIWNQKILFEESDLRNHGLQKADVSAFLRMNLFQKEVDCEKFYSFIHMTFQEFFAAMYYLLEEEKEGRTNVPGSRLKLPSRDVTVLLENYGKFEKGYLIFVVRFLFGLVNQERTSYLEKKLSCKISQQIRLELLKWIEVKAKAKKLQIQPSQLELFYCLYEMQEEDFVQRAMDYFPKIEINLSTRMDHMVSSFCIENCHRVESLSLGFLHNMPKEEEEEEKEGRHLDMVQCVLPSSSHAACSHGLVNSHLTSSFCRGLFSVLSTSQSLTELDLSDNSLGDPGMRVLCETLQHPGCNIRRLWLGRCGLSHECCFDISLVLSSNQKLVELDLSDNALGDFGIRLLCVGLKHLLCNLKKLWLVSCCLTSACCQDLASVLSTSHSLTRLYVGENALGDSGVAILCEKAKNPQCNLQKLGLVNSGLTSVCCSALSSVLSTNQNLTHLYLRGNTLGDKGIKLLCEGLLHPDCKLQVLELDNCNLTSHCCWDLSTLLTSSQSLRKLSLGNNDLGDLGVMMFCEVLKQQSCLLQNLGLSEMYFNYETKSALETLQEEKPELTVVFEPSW

B1: GST-human VDR (natural protein, UniProt P11473 1-427, looked up)
chain: MEAMAASTSLPDPGDFDRNVPRICGVCGDRATGFHFNAMTCEGCKGFFRRSMKRKALFTCPFNGDCRITKDNRRHCQACRLKRCVDIGMMKEFILTDEEVQRKREMILKRKEEEALKDSLRPKLSEEQQRIIAILLDAHHKTYDPTYSDFCQFRPPVRVNDGGGSHPSRPNSRHTPSFSGDSSSSCSDHCITSSDMMDSSSFSNLDLSEEDSDDPSVTLELSQLSMLPHLADLVSYSIQKVIGFAKMIPGFRDLTSEDQIVLLKSSAIEVIMLRSNESFTMDDMSWTCGNQDYKYRVSDVTKAGHSLELIEPLIKFQVGLKKLNLHEEEHVLLMAICIVSPDRPGVQDAALIEAIQDRLSNTLQTYIRCRHPPPGSHLLYAKMIQKLADLRSLNEEHSKQYRCLSFQPECSMKLTPLVLEVFGNEIS
notes: human vitamin D receptor in pGEX-6P1; also called GST-VDR; pGEX6p-1-GST-VDR; source: E. coli BL21(DE3), IPTG-induced; called purified in the legend
Take B1: the binding result was “binds”.
